Experimental data as given in patent US20240279325A1 (Chugai, published 2024).

B1: IL6R-BP911/IL6R-L (antibody, human IgG1, kappa, name in EU numbering)
heavy: QVQLQESGPGLVKPSETLSLTCAVSGHSISHDHAWSWVRQPPGEGLEWIGFISYSGITNYNPSLQGRVTISRDNSKNTLYLQMNSLRAEDTAVYYCARSLARTTAMDYWGEGTLVTVSSASTKGPSVFPLAPSSKSTSGGTAALGCLVKDYFPEPVTVSWNSGALTSGVHTFPAVLQSSGLYSLSSVVTVPSSSLGTQTYICNVNHKPSNTKVDKKVEPKSCDKTHTCPPCPAPELLGGDSVFLFPPKPKDTLMISRTPEVTCVVVDVSHEDPEVKFNWYVDGVEVHNAKTKPREEQYNSTYRVVSVLTVLHQDWLNGKEYKCKVSNKALPKPIEKTISKAKGQPREPQVYTLPPSRDELTKNQVSLTCLVKGFYPSDIAVEWESNGQPENNYKTTPPVLDSDGSFFLYSKLTVDKSRWQQGNVFSCSVMHEALHNHYTQESLSLSP
light: not shown
notes: Alterations introduced into IL6R-B3; also called P238D/A330K; copies: 2 + 2
B2: IL6R-BP126/IL6R-L (antibody, human IgG1, kappa, name in EU numbering)
heavy: QVQLQESGPGLVKPSETLSLTCAVSGHSISHDHAWSWVRQPPGEGLEWIGFISYSGITNYNPSLQGRVTISRDNSKNTLYLQMNSLRAEDTAVYYCARSLARTTAMDYWGEGTLVTVSSASTKGPSVFPLAPSSKSTSGGTAALGCLVKDYFPEPVTVSWNSGALTSGVHTFPAVLQSSGLYSLSSVVTVPSSSLGTQTYICNVNHKPSNTKVDKKVEPKSCDKTHTCPPCPAPELLGGDSVFLFPPKPKDTLMISRTPEVTCVVVDVSHEDPEVKFNWYVDGVEVHNAKTKPREEQYNSTYRVVSVLTVLHQDWLNGKEYKCKVSNLALPAPIEKTISKAKGQPREPQVYTLPPSRDELTKNQVSLTCLVKGFYPSDIAVEWESNGQPENNYKTTPPVLDSDGSFFLYSKLTVDKSRWQQGNVFSCSVMHEALHNHYTQESLSLSP
light: not shown
notes: Alterations introduced into IL6R-B3; also called P238D/K326L; copies: 2 + 2
B3: IL6R-BP136/IL6R-L (antibody, human IgG1, kappa, name in EU numbering)
heavy: QVQLQESGPGLVKPSETLSLTCAVSGHSISHDHAWSWVRQPPGEGLEWIGFISYSGITNYNPSLQGRVTISRDNSKNTLYLQMNSLRAEDTAVYYCARSLARTTAMDYWGEGTLVTVSSASTKGPSVFPLAPSSKSTSGGTAALGCLVKDYFPEPVTVSWNSGALTSGVHTFPAVLQSSGLYSLSSVVTVPSSSLGTQTYICNVNHKPSNTKVDKKVEPKSCDKTHTCPPCPAPELLGGDSVFLFPPKPKDTLMISRTPEVTCVVVDVSHEDPEVKFNWYVDGVEVHNAKTKPREEQYNSTYRVVSVLTVLHQDWLNGKEYKCKVSNAALPAPIEKTISKAKGQPREPQVYTLPPSRDELTKNQVSLTCLVKGFYPSDIAVEWESNGQPENNYKTTPPVLDSDGSFFLYSKLTVDKSRWQQGNVFSCSVMHEALHNHYTQESLSLSP
light: not shown
notes: Alterations introduced into IL6R-B3; also called P238D/K326A; copies: 2 + 2
B4: IL6R-BP912/IL6R-L (antibody, human IgG1, kappa, name in EU numbering)
heavy: QVQLQESGPGLVKPSETLSLTCAVSGHSISHDHAWSWVRQPPGEGLEWIGFISYSGITNYNPSLQGRVTISRDNSKNTLYLQMNSLRAEDTAVYYCARSLARTTAMDYWGEGTLVTVSSASTKGPSVFPLAPSSKSTSGGTAALGCLVKDYFPEPVTVSWNSGALTSGVHTFPAVLQSSGLYSLSSVVTVPSSSLGTQTYICNVNHKPSNTKVDKKVEPKSCDKTHTCPPCPAPELLGGDSVFLFPPKPKDTLMISRTPEVTCVVVDVSHEDPEVKFNWYVDGVEVHNAKTKPREEQYNSTYRVVSVLTVLHQDWLNGKEYKCKVSNKALPRPIEKTISKAKGQPREPQVYTLPPSRDELTKNQVSLTCLVKGFYPSDIAVEWESNGQPENNYKTTPPVLDSDGSFFLYSKLTVDKSRWQQGNVFSCSVMHEALHNHYTQESLSLSP
light: not shown
notes: Alterations introduced into IL6R-B3; also called P238D/A330R; copies: 2 + 2
B5: IL6R-BP119/IL6R-L (antibody, human IgG1, kappa, name in EU numbering)
heavy: QVQLQESGPGLVKPSETLSLTCAVSGHSISHDHAWSWVRQPPGEGLEWIGFISYSGITNYNPSLQGRVTISRDNSKNTLYLQMNSLRAEDTAVYYCARSLARTTAMDYWGEGTLVTVSSASTKGPSVFPLAPSSKSTSGGTAALGCLVKDYFPEPVTVSWNSGALTSGVHTFPAVLQSSGLYSLSSVVTVPSSSLGTQTYICNVNHKPSNTKVDKKVEPKSCDKTHTCPPCPAPELLGGDSVFLFPPKPKDTLMISRTPEVTCVVVDVSHEDPEVKFNWYVDGVEVHNAKTKPREEQYNSTYRVVSVLTVLHQDWLNGKEYKCKVSNMALPAPIEKTISKAKGQPREPQVYTLPPSRDELTKNQVSLTCLVKGFYPSDIAVEWESNGQPENNYKTTPPVLDSDGSFFLYSKLTVDKSRWQQGNVFSCSVMHEALHNHYTQESLSLSP
light: not shown
notes: Alterations introduced into IL6R-B3; also called P238D/K326M; copies: 2 + 2
B6: IL6R-BP142/IL6R-L (antibody, human IgG1, kappa, name in EU numbering)
heavy: QVQLQESGPGLVKPSETLSLTCAVSGHSISHDHAWSWVRQPPGEGLEWIGFISYSGITNYNPSLQGRVTISRDNSKNTLYLQMNSLRAEDTAVYYCARSLARTTAMDYWGEGTLVTVSSASTKGPSVFPLAPSSKSTSGGTAALGCLVKDYFPEPVTVSWNSGALTSGVHTFPAVLQSSGLYSLSSVVTVPSSSLGTQTYICNVNHKPSNTKVDKKVEPKSCDKTHTCPPCPAPELLGGDSVFLFPPKPKDTLMISRTPEVTCVVVDVSHEDPEVKFNWYVDGVEVHNAKTKPREEQYNSTYRVVSVLTVLHQDWLNGKEYKCKVSNNALPAPIEKTISKAKGQPREPQVYTLPPSRDELTKNQVSLTCLVKGFYPSDIAVEWESNGQPENNYKTTPPVLDSDGSFFLYSKLTVDKSRWQQGNVFSCSVMHEALHNHYTQESLSLSP
light: not shown
notes: Alterations introduced into IL6R-B3; also called P238D/K326N; copies: 2 + 2

The binders below were run against T1, human FcγRIIIa type V (allotype V158) extracellular domain with C-terminal His tag (human, UniProt P08637 17-208) (assay: SPR (Biacore), antibody captured, FcγR analyte).
T1 construct: also called FcγRIIIaV
T1 sequence (P08637 other isoform, or with tags, fused parts or gaps): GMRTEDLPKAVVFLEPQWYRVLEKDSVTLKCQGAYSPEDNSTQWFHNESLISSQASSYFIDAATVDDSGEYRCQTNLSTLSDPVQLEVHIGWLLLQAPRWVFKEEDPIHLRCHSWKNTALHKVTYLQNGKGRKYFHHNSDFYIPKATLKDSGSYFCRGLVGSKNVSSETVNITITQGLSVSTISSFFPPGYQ

Binder | Kd
B1 | 58 µM
B2 | 56 µM
B3 | 69 µM
B4 | 78 µM
B5 | 56 µM
B6 | 110 µM
